Data from article PMC9347012, “Regulation of tomato fruit elongation by transcription factor BZR1.7 through promotion of SUN gene expression”.

B1: E-box-wt probe (SUN promoter, 42 bp) (dsDNA)
DNA 1: TGTCCATCAAGACCGAAACAAATGAGAAAAATCACCTAGTGT
DNA 2: ACACTAGGTGATTTTTCTCATTTGTTTCGGTCTTGATGGACA
B2: E-box-mt probe (CAAATG to TCGCGA) (dsDNA)
DNA 1: TGTCCATCAAGACCGAAATCGCGAAGAAAAATCACCTAGTGT
DNA 2: ACACTAGGTGATTTTTCTTCGCGATTTCGGTCTTGATGGACA

Biological target: BZR1.7 (His-6-MBP-BZR1.7) (Solanum lycopersicum, UniProt A0A3Q7IIT4 1-180)
Sequence (A0A3Q7IIT4 entry or part of it): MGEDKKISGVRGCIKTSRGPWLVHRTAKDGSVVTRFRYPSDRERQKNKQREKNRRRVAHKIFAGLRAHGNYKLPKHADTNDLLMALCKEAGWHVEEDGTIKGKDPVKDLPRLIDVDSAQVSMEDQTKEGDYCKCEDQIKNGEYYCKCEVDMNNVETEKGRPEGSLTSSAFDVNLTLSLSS
Assay: EMSA; EMSA: 20 uL binding reaction buffer (composition not given), 40 min at 4 °C in the dark; 6% native PAGE, 0.5x TBE, 4 °C; pH and salt not given
Settings: protein: recombinant; tags: His6-MBP, N-terminal; label: 5'-FAM (on one strand; partner unlabeled); blunt

| Binder | binding result |
| --- | --- |
| B1 | binds |
| B2 | no binding |
